We go through 1 substance from patent US20120058906A1.

Experiment [1] deals with rHuman HGF R/c-MET/Fc Chimera, CF (R&D Systems Cat#358-MT/CF) (human) (UniProt P08581). In words: ECL (MSD multi-spot), Fab 170 nM; blank 262.
Experiment [2] deals with rHuman IGF-1 sR (IGF-1 sR), CF (R&D Systems Cat#391-GR) (human) (UniProt P08069). In words: ECL (MSD multi-spot), Fab 170 nM; blank 262.
Experiment [3] deals with rHuman EGF R/Fc Chimera, CF (R&D Systems Cat#344-ER) (human) (UniProt P00533). The experiment is described as follows: ECL (MSD multi-spot), Fab 170 nM; blank 262.
In experiment [4] the target is rHuman CD44/Fc Chimera, CF (R&D Systems Cat#3660-CD) (human) (UniProt P16070). The experiment is described as follows: ECL (MSD multi-spot), Fab 170 nM; blank 262.
Experiment [5] addresses rHuman Erythropoietin R/Fc Chimera, CF (R&D Systems Cat#963-ER) (human) (UniProt P19235). In words: ECL (MSD multi-spot), Fab 170 nM; blank 262.
Experiment [6] deals with rHuman ErbB2/Fc Chimera, CF (R&D Systems Cat#1129-ER) (human) (UniProt P04626). In words: ECL (MSD multi-spot), Fab 170 nM; blank 262.
For experiment [7], the target named is rHuman Notch-1/Fc Chimera, CF (R&D Systems Cat#3647-TK) (human) (UniProt P46531). In words: ECL (MSD multi-spot), Fab 170 nM; blank 262.
For experiment [8], the target named is rHuman P-Cadherin/Fc Chimera, CF (R&D Systems Cat#861-PC) (human) (UniProt P22223). The experiment is described as follows: ECL (MSD multi-spot), Fab 170 nM; blank 262.
For experiment [9], the target named is rHuman CD44/Fc Chimera, CF (R&D Systems Cat#3660-CD) (human) (UniProt P16070). In words: ECL (MSD multi-spot), Fab 340 nM; blank 554.
In experiment [10] the target is rHuman Erythropoietin R/Fc Chimera, CF (R&D Systems Cat#963-ER) (human) (UniProt P19235). In words: ECL (MSD multi-spot), Fab 340 nM; blank 554.
Chain of rHuman Erythropoietin R/Fc Chimera, CF (R&D Systems Cat#963-ER) (human) (P19235 25-250, change not shown): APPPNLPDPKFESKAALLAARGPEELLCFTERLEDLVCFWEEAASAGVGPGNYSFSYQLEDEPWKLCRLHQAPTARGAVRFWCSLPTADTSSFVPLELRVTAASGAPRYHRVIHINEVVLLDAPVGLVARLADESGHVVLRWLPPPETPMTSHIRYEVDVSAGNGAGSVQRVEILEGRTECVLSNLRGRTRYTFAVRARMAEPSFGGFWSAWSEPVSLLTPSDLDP

With “Fab VH4-34_IGHD7-27*01_IGHJ4*01 & V4-6_IGLJ4*01”, the ECL signal was determined as 757 ECL signal in experiment [1]; 832 ECL signal in experiment [2]; 826 ECL signal in experiment [3]; 660 ECL signal in experiment [4]; 790 ECL signal in experiment [5]; 964 ECL signal in [6]. In addition, the ECL signal is 816 ECL signal in experiment [7], 744 ECL signal in [8], 959 ECL signal in [9] and 1260 ECL signal in experiment [10].
